Consider 1 molecule from paper PMC3483155, “Inhibition of Pre-mRNA Splicing by a Synthetic Blom7α-Interacting Small RNA”.

Series [1] concerns the target Blom7-KH (Homo sapiens, UniProt Q7Z7F0 1-317). As to the kind of experiment: EMSA; 1 mM Mg2+; 20 nM RNA, 0-50 nM protein; EMSA: PBS pH 7.5, 1 mM MgCl2, 1 mM DTT, 5% glycerol, 20 min at room temperature, gel at 4°C; SPR: 1x PBS, 1 mM Mg acetate, pH 7.0 (or HEPES + 3 mM Mg acetate). The following applies: protein: recombinant; tags: His6 (C-terminal as named, pET30A); label: 3' biotin; single strand. A general note: A gel shift assay detects complexes by their altered migration in electrophoresis.

The target of series [2] is Blom7α wt (Homo sapiens, UniProt Q7Z7F0 1-614). The series is described as above.

B1: AK48 (ssRNA)
RNA: UGCCCCAAUCCUACACGACCCAAGGCCCCC
In the case of B1, the binding result in series [1] and in series [2] was “binds” in each case.
